This note sets out measurements from patent US20140370558.

Test in all cases: cell_activity
Data set [1] deals with FAD2_T04_Left_C40 + FAD2_T03_Right_C40 TALEN pair. As to conditions: yeast reporter cleavage.
In data set [2] the test system is FAD2_T01_Left_C11 + FAD2_T01_Right_C11 TALEN pair. The following applies: yeast reporter cleavage.
In data set [3] the test system is FAD2_T01_Left_C40 + FAD2_T01_Right_C40 TALEN pair. The following applies: yeast reporter cleavage.
For data set [4], the system named is FAD2_T03_Left_C11 + FAD2_T03_Right_C11 TALEN pair. The following applies: yeast reporter cleavage.
The subject of data set [5] is FAD2_T04_Left_C11 + FAD2_T03_Right_C11 TALEN pair. The following applies: yeast reporter cleavage.
The subject of data set [6] is FAD2_T03_Left_C40 + FAD2_T03_Right_C40 TALEN pair. As to conditions: yeast reporter cleavage.
In data set [7] the test system is FAD2_T02_Left_C11 + FAD2_T01_Right_C11 TALEN pair. The following applies: yeast reporter cleavage.
The subject of data set [8] is FAD2_T02_Left_C40 + FAD2_T01_Right_C40 TALEN pair. As to conditions: yeast reporter cleavage.
For data set [9], the system named is FAD2_T03_Left_C40 TALEN monomer (synthetic (TAL effector-nuclease fusion)?). The following applies: yeast reporter; value of pair with T03_Right_C40 on Target 3.
Data set [10] has as its system FAD2_T03_Left_C11 TALEN monomer (synthetic (TAL effector-nuclease fusion)?). The following applies: yeast reporter; value of pair with T03_Right_C11 on Target 3.
Data set [11] deals with FAD2_T01_Left_C11 TALEN monomer (synthetic (TAL effector-nuclease fusion)?). As to conditions: yeast reporter; value of pair with T01_Right_C11 on Target 1.
Data set [12] has as its system FAD2_T01_Left_C40 TALEN monomer (synthetic (TAL effector-nuclease fusion)?). As to conditions: yeast reporter; value of pair with T01_Right_C40 on Target 1.
Data set [13] relates to FAD2_T03_Right_C11 TALEN monomer (synthetic (TAL effector-nuclease fusion)?). The following applies: yeast reporter; value of pair with T03_Left_C11 on Target 3.
The test system of data set [14] is FAD2_T03_Right_C40 TALEN monomer (synthetic (TAL effector-nuclease fusion)?). The following applies: yeast reporter; value of pair with T03_Left_C40 on Target 3.
The test system of data set [15] is FAD2_T04_Left_C40 TALEN monomer (synthetic (TAL effector-nuclease fusion)?). The following applies: yeast reporter; value of pair with T03_Right_C40 on Target 4.
Data set [16] concerns FAD2_T04_Left_C11 TALEN monomer (synthetic (TAL effector-nuclease fusion)?). The following applies: yeast reporter; value of pair with T03_Right_C11 on Target 4.
Data set [17] concerns FAD2_T02_Left_C40 TALEN monomer (synthetic (TAL effector-nuclease fusion)?). As to conditions: yeast reporter; value of pair with T01_Right_C40 on Target 2.
Data set [18] has as its system FAD2_T02_Left_C11 TALEN monomer (synthetic (TAL effector-nuclease fusion)?). The following applies: yeast reporter; value of pair with T01_Right_C11 on Target 2.
The subject of data set [19] is FAD2_T01_Right_C40 TALEN monomer (synthetic (TAL effector-nuclease fusion)?). As to conditions: yeast reporter; value of pair with T01_Left_C40 on Target 1.
Data set [20] relates to FAD2_T01_Right_C11 TALEN monomer (synthetic (TAL effector-nuclease fusion)?). The following applies: yeast reporter; value of pair with T01_Left_C11 on Target 1.
The mark [21] stands for this setting: left site truncated in Target 1.
The mark [22] stands for this setting: left site truncated in Target 3.

“ATTTCTCATGGAAAATAAGCCATCGCCGCCATCACTCCAACACAGGTTCCCTTGACCGTGATGAAGTGTTTGTCCC (double strand) [FAD2 Target 4]”: the activity (relative to I-SceI) amounted to 0.52 in [1]; 0 in data set [2]; 0 in data set [3]; 0.53 in data set [4]; 0.54 in data set [5]; 0.51 in [6]. Further, the activity (relative to I-SceI) in data set [7] and in data set [8] was 0 in each case.
As for “ACATTGCCACCACCTACTTCCACCTCCTTCCTCAACCCTTTTCCCTCATTGCATGGCCAATCT (double strand) [FAD2 Target 2]”, the activity (relative to I-SceI) in data set [1] was found to be 0; in data set [2], 0.87; in [3], 0.73; in [4], 0; in data set [5], 0; in data set [6], 0. Moreover, the activity (relative to I-SceI) in data set [7] turned out to be 0.97; in data set [8], 0.96.
As for “CTCATGGAAAATAAGCCAT (double strand) [FAD2_T03 left half-site]”, the values for the activity (relative to I-SceI) in [9] and in data set [10] were 0.63 and 0.65, respectively.
With “GCCACCACCTACTTCCACCTCCTTCCTCAACCCTTTTCCCTCATTGCATGGCCAATCT (double strand) [FAD2 Target 1]”, the activity (relative to I-SceI) in data set [1] was found to be 0; in data set [2] it was 0.73; in data set [3], 0.79; in data set [4], 0; in data set [5], 0; in [6], 0. Also, the activity (relative to I-SceI) in [7] (setting [21]) and in [8] (setting [21]) was 0 each time.
Turning to “CTCATGGAAAATAAGCCATCGCCGCCATCACTCCAACACAGGTTCCCTTGACCGTGATGAAGTGTTTGTCCC (double strand) [FAD2 Target 3]”, the activity (relative to I-SceI) in data set [1] (setting [22]) is 0; in [2] it was 0; in data set [3], 0; in [4] it was 0.65; in data set [5] (setting [22]), 0; in [6] it was 0.63. Also, the activity (relative to I-SceI) in data set [7] and in [8] was 0 throughout.
Regarding “GCCACCACCTACTTCCACCTCCT (double strand) [FAD2_T01 left half-site]”, the activity (relative to I-SceI) in [11] worked out at 0.73; in [12], 0.79.
Consider “ACCGTGATGAAGTGTTTGTCCC (double strand) [FAD2_T03/T04 right half-site]”, for which the activity (relative to I-SceI) in [13] came to 0.65; in [14] it was 0.63.
Take “ATTTCTCATGGAAAATAAGCCAT (double strand) [FAD2_T04 left half-site]”: the values for the activity (relative to I-SceI) in data set [15] and in data set [16] were 0.52 and 0.54, respectively.
“ACATTGCCACCACCTACTTCCACCT (double strand) [FAD2_T02 left half-site]”: the activity (relative to I-SceI) in data set [17] came out at 0.96; in data set [18], 0.97.
For “ATTGCATGGCCAATCT (double strand) [FAD2_T01/T02 right half-site]”, the activity (relative to I-SceI) was found to be 0.79 in data set [19] and 0.73 in data set [20].
